This test deals with thin filaments of membrane-permeabilized (skinned) porcine ventricular myofibrils (pig (endogenous in porcine ventricular myofibrils)) (UniProt P42639). The test can be described thus: co-sedimentation; 23 ± 3 uM IANBD-labeled Tn incubated 4 h on ice (or overnight) with skinned porcine myofibrils (~20 mg/ml) in hypotonic rigor buffer with 6 mM ATP and 1 mg/ml BSA; myofibrils pelleted at 1,000 x g and washed; labeled cTnC relative to total cTnC on 18% SDS-PAGE (fluorescence against Coomassie).
UniProt P42639, sequence (P42639 whole entry, looked up): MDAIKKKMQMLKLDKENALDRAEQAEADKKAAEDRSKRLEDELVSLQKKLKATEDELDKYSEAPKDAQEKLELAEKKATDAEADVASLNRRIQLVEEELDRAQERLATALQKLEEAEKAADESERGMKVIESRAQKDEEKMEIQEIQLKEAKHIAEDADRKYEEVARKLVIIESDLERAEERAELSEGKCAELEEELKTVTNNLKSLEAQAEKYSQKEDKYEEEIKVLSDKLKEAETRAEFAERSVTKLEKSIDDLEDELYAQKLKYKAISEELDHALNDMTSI

In turn, “human recombinant troponin complex containing IANBD-cTnC^T53C, wild-type cTnI and wild-type cTnT (from UniProt P63316 1-161; P19429 1-210)” returned an extent of exchange (labeled cTnC relative to total cTnC in the myofibrils) of 41%.

The values above are taken from article PMC9859762.
